Consider one substance from article PMC5646243.

For orientation: Kd means the free concentration of one partner at which half of the binding sites on the other are occupied at equilibrium, for simple one-to-one binding. A high value points to weaker binding.

In the series the test system is TbRpf2 (Trypanosoma brucei (427?)). The series is described as follows: filter binding. The note with it: no Rrs1; 1 mM EDTA; error presumably SEM, 3 replicates; 10 mM Tris pH 7.4, 1 mM EDTA, 100 mM NaCl, 100 ug/ml BSA, 30 min, room temperature; RNA <0.5 nM, protein 0-250 nM.

For the substance T. brucei 5S rRNA, the Kd is 26 nM.
